Source: WO2020165374A1 (dated 2020)

How the values were obtained:
[1] = biological target: T1, recombinant human PD-1 (Sino Biologicals, reference 10377-H08H) (human, UniProt Q15116 25-167); experiment: ELISA, recombinant hPD1 immobilized, anti-human IgG peroxidase detection
T1 construct: Bought protein; also called recombinant hPDl; Human recombinant PD-1

[2] = biological target: T2, human recombinant IL-15 (SinoBiological ref#10360-H07E) (human, UniProt P40933 49-162); experiment: ELISA, human IL-15 immobilized, anti-human IgG peroxidase detection
T2 construct: also called Human IL-15; IL-15 cytokine
T2 sequence (P40933 49-162 limits assumed, stated change not applied): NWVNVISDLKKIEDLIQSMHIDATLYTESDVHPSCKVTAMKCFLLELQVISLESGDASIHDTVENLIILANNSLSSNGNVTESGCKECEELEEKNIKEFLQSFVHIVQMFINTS

T1 sequence (Q15116 25-167 limits assumed): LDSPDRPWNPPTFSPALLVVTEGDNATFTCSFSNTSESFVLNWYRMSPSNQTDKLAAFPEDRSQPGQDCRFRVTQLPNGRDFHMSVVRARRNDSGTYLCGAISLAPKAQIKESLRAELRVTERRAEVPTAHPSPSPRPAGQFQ

binding result [1]: binds | binding result [2]: no binding
B1: anti-PD-1 antibody (antibody, human IgG4 S228P, kappa, V domains shown)
VH: QIQLVQSGSELKKPGASVKVSCKASGYTFTHYAMNWVRQAPGQGLEWMGWINTNTGEPTYAQGFTGRFVFSLDTSVSTAYLQISSLKAEDTAVYYCAREREPGMDNWGQGTLVTVSS
VL: DVVMTQSPLSLPVTLGQPASISCRSSQSLVHANTNTYLEWYQQRPGQSPRLLIYKVSNRFSGVPDRFSGSGSGTDFTLKISRVEAEDVGVYYCFQGTHVPNTFGQGTKLEIKR
notes: also called Anti-PDl; anti-PD-1 alone
